Experimental findings from patent US20220298235A1 (AKESO BIOPHARMA, published 2022) are described below.

The target of assay [1] is T1, human p40-His (human, UniProt P29460 23-328).
T1 construct: Made by Akeso Biopharma; construct limits and tag not described; also called human IL-12/IL-23 p40 protein domain; human IL-12/IL-23 p40; not shown: His tag
T1 sequence (looked up): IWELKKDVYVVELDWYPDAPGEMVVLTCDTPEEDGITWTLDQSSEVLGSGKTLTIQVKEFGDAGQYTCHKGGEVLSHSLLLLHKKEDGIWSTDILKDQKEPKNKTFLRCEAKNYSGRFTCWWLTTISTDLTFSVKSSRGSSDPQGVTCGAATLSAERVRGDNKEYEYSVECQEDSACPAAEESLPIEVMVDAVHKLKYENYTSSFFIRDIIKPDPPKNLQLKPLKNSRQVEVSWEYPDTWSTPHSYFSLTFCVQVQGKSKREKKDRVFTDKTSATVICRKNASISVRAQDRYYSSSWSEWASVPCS
As to the kind of experiment: indirect ELISA, p40-His coat 0.25 µg/mL. The method, then:
(§1) A microplate was coated with human p40-His (Akeso Biopharma, Inc.; gene of p40: GeneBank NM002187). After incubation at 4° C. for no less than 12 h, the plate was washed with PBST, patted dry and blocked with a solution of 1% BSA in PBS. After blocking was completed, the plate was washed with PBST and patted dry. The antibody diluted with PBST solution in gradient was added into the wells of the plate, and the antibody dilution gradient is detailed in Table 1. The plate containing the test antibody was incubated at 37° C. for 30 min and then washed with PBST and patted dry. […] TMB (Neogen, 308177) was added for color developing for 5 min in the absence of light, and then stop solution was added to terminate the chromogenic reaction. Then the plate was put into a plate reader immediately, and the OD value of each well in the plate was read at 450 nm. The data were analyzed by SoftMax Pro 6.2.1.
The binding EC₅₀ of antibody was calculated by curve fitting using antibody concentration as the abscissa and absorbance value as the ordinate, and the results are shown in Table 4 below.
(In an ELISA, binding on a coated surface is turned into a signal by an enzyme label.)

Assay [2] addresses T2, Human IL12 (His Tag) (human, UniProt P29459 23-219; P29460 23-328).
T2 construct: Bought His-tagged heterodimer
T2 sequence (looked up) 1: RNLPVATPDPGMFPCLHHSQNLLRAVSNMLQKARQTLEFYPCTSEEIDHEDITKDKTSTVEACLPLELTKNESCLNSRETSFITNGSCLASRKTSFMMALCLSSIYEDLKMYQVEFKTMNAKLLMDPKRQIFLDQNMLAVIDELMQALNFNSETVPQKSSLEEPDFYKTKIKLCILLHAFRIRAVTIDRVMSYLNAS
T2 sequence (looked up) 2: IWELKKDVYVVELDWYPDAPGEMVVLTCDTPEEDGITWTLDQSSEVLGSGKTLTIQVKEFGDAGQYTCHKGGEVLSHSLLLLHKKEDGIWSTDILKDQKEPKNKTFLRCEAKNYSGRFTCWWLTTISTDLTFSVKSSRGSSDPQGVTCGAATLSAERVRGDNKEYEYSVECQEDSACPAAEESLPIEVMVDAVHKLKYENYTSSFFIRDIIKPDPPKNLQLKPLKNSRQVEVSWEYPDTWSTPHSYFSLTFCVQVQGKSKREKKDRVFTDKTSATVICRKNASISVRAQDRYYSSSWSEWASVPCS
Put plainly: FACS competition, IL-12-His 20 nM on 293T-IL-12Rβ1&IL-23R cells; antibody 1.11 µg/mL. The method, then: (§2) 200 μL of 1% PBSA was added into each sample, and the mixture was centrifuged at 700×g for 5 min to discard the supernatant. According to experiment design, correspondingly diluted antibody (highest final concentration of 30 μg/mL, 3-fold dilution, 8 concentrations in total) and human IL-12 (Sino Biological, Cat. No.: CT-050-H08H-20) (final concentration of 20 nM) were mixed at a ratio of 1:1, and a blank control was set. The mixture of antibody and human IL12 was incubated on ice for 30 min and then added to the cell precipitate at 100 μL/sample. The resulting mixture was well mixed and incubated on ice for 60 min 200 μL of 1% PBSA was added, and the mixture was centrifuged at 700×g for 5 min to discard the supernatant, and then washed twice. Alexa Fluor® 488 anti-His tag antibody (Biolegend, Cat. No.: 652509) was diluted at a ratio of 1:400 and added to each tube at 100 μL. The mixture was well mixed and incubated on ice for 40 min in the absence of light. 200 μL of 1% PBSA was added, and the mixture was centrifuged at 700×g for 5 min to discard the supernatant, and then washed twice. 1% PBSA was added at 200 μL/tube, and the cells were resuspended and transferred to a flow cytometry tube for testing.

Assay [3] has as its target T2, Human IL12 (His Tag). As to the kind of experiment: FACS competition, IL-12-His 20 nM on 293T-IL-12Rβ1&IL-23R cells. Here is the method: as §2
In assay [4] the target is T2, Human IL12 (His Tag). As to the kind of experiment: FACS competition, IL-12-His 20 nM on 293T-IL-12Rβ1&IL-23R cells; antibody 0.37 µg/mL. The method, then: as §2
In assay [5] the target is T3, human IL-23 (IL-23-His-Biotin) (human, UniProt Q9NPF7 20-189; P29460 23-328, biotin label, site not stated).
T3 construct: Akesobio lot 20161209; His-tagged and biotinylated
T3 sequence (looked up) 1: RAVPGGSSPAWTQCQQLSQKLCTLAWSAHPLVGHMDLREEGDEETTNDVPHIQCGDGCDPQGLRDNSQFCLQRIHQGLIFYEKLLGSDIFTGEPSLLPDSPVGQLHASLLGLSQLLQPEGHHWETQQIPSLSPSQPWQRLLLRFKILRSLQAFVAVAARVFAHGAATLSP
T3 sequence (looked up) 2: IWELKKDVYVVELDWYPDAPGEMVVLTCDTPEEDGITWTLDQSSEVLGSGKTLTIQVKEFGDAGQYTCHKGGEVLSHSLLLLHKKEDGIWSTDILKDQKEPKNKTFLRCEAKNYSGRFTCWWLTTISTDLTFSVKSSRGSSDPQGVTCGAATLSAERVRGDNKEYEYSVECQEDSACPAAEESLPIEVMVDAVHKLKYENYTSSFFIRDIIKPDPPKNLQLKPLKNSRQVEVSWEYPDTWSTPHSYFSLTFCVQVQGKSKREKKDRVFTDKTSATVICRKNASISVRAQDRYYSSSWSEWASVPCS
Put plainly: FACS competition, IL-23-His-Biotin 2 µg/mL on 293T-IL-12Rβ1&IL-23R cells; antibody 0.01 µg/mL. Here is the method: 200 μL of 1% PBSA was added into each sample, and the mixture was centrifuged at 700×g for 5 min to discard the supernatant. According to experiment design, correspondingly diluted antibody (highest final concentration of 30 μg/mL, 3-fold dilution, 8 concentrations in total) and human IL-23 (IL-23-His-Biotin, Akesobio, 20161209) (final concentration of 2 μg/mL) were mixed at a ratio of 1:1, and a blank control was set. The mixture of antibody and human IL23 was incubated on ice for 30 min and then added to the cell precipitate at 100 μL/sample. The resulting mixture was well mixed and incubated on ice for 60 min. 200 μL of 1% PBSA was added, and the mixture was centrifuged at 700×g for 5 min to discard the supernatant, and then washed twice. FITC Steptavidin (Biolegend, Cat. No.: 405202) was diluted at a ratio of 1:500 and added to each tube at 100 μL. The mixture was well mixed and incubated on ice for 40 min in the absence of light. 200 μL of 1% PBSA was added, and the mixture was centrifuged at 700×g for 5 min to discard the supernatant, and then washed twice. 1% PBSA was added at 200 μL/tube, and the cells were resuspended and transferred to a flow cytometry tube for testing.

Assay [6] addresses T1, human p40-His. Put plainly: indirect ELISA, p40-His coat 0.125 µg/mL. Here is the method:
as §1
The detection results of the binding of antibodies H5L11, H5L12, H5L14 and Ab123FR1 to the antigen human p40-His are shown in FIG. 3. The binding EC₅₀ of antibody was calculated by curve fitting using antibody concentration as the abscissa and absorbance value as the ordinate, and the results are shown in Table 3 below.

B1: ustekinumab (antibody, V domains shown)
VH: EVQLVQSGAEVKKPGESLKISCKGSGYSFTTYWLGWVRQMPGKGLDWIGIMSPVDSDIRYSPSFQGQVTMSVDKSITTAYLQWNSLKASDTAMYYCARRRPGQGYFDFWGQGTLVTVSS
VL: DIQMTQSPSSLSASVGDRVTITCRASQGISSWLAWYQQKPEKAPKSLIYAASSLQSGVPSRFSGSGSGTDFTLTISSLQPEDFATYYCQQYNIYPYTFGQGTKLEIK
Usually EC50 stands for the concentration that produces a half-maximal response. Higher therefore signals a less potent agent. For the molecule B1, the EC50 in the assay with human p40-His [1] worked out at 0.077 nM; in the assay with Human IL12 (His Tag) [3], 0.377 µg/mL. The MFI in the assay with Human IL12 (His Tag) [2] worked out at 31.9 MFI; in the assay with Human IL12 (His Tag) [4] it was 95.7 MFI; in assay [5] it was 219 MFI.

B2: H5L10 (antibody, human IgG1, kappa, V domains shown)
VH: EVQLVQSGAEVKKPGESLKISCQSSGYSFTTYWIGWVRQMPGQGLEWIGIMSPVDSDIRYNPMFRGQVTMSVDKSSSTAYLQWSSLKASDTAMYYCARRRPGQGYFDFWGQGTMVTVSS
VL: EIVLTQSPATLSASPGERATISCRASQSVGSWLAWYQQKPGQAPRSLIYAASNLQSGIPARFSGSGSGTDFTLTISSLEPEDFAVYYCQQYNIYPYTFGQGTRLEIKR
notes: human IgG1 / kappa constant regions; also called humanized antibody H5L10
On to B2, for which the MFI in the assay with Human IL12 (His Tag) [2] was found to be 44.6 MFI; in the assay with Human IL12 (His Tag) [4], 87.5 MFI; in assay [5] it was 223 MFI. Moreover, the EC50 in the assay with Human IL12 (His Tag) [3] turned out to be 0.331 µg/mL.

B3: H5L9 (antibody, human IgG1, kappa, V domains shown)
VH: EVQLVQSGAEVKKPGESLKISCQSSGYSFTTYWIGWVRQMPGQGLEWIGIMSPVDSDIRYNPMFRGQVTMSVDKSSSTAYLQWSSLKASDTAMYYCARRRPGQGYFDFWGQGTMVTVSS
VL: DIQMTQSPSSLSASVGDRVTITCKASQNVGSWLAWYQQKPGKAPKSLIYSASSRQSGVPSRFSGSGSGTDFTLTISSLQPEDFATYYCQQYDIYPFTFGQGTKLEIKR
notes: human IgG1 (P01857) / kappa (P01834) constant regions; also called humanized antibody H5L9
Take B3: the values for the MFI (with Human IL12 (His Tag) [2]; with Human IL12 (His Tag) [4]; in assay [5]) were 157 MFI, 159 MFI and 222 MFI, respectively.

B4: H5L12 (antibody, human IgG1, kappa, V domains shown)
VH: EVQLVQSGAEVKKPGESLKISCQSSGYSFTTYWIGWVRQMPGQGLEWIGIMSPVDSDIRYNPMFRGQVTMSVDKSSSTAYLQWSSLKASDTAMYYCARRRPGQGYFDFWGQGTMVTVSS
VL: EIVLTQSPATLSASPGERATISCRASQSVSSWLAWYQQKPGQAPRSLIYAASNRQSGIPARFSGSGSGTDFTLTISSLEPEDFAVYYCQQYNIYPYTFGQGTRLEIKR
notes: human IgG1 / kappa constant regions; also called humanized antibody H5L12
For B4, the MFI with Human IL12 (His Tag) [2] came to 38.5 MFI; with Human IL12 (His Tag) [4], 86.6 MFI; in assay [5], 221 MFI. The EC50 was found to be 0.317 µg/mL in the assay with Human IL12 (His Tag) [3] and 0.082 nM with human p40-His [6].

B5: H5L11 (antibody, human IgG1, kappa, V domains shown)
VH: EVQLVQSGAEVKKPGESLKISCQSSGYSFTTYWIGWVRQMPGQGLEWIGIMSPVDSDIRYNPMFRGQVTMSVDKSSSTAYLQWSSLKASDTAMYYCARRRPGQGYFDFWGQGTMVTVSS
VL: EIVLTQSPATLSASPGERATISCRASQSVSSWLAWYQQKPGQAPRSLIYSASNLQSGIPARFSGSGSGTDFTLTISSLEPEDFAVYYCQQYNIYPYTFGQGTRLEIKR
notes: human IgG1 / kappa constant regions; also called humanized antibody H5L11
B5: the MFI was found to be 54.3 MFI in the assay with Human IL12 (His Tag) [2], 103 MFI with Human IL12 (His Tag) [4] and 219 MFI in assay [5]. Further, the results for the EC50 with Human IL12 (His Tag) [3] and with human p40-His [6] were 0.414 µg/mL and 0.082 nM, respectively.

B6: H5L14 (antibody, human IgG1, kappa, V domains shown)
VH: EVQLVQSGAEVKKPGESLKISCQSSGYSFTTYWIGWVRQMPGQGLEWIGIMSPVDSDIRYNPMFRGQVTMSVDKSSSTAYLQWSSLKASDTAMYYCARRRPGQGYFDFWGQGTMVTVSS
VL: EIVLTQSPATLSASPGERATISCRASQSVSSWLAWYQQKPGQAPRSLIYAASNLQSGIPARFSGSGSGTDFTLTISSLEPEDFAVYYCQQYNIYPFTFGQGTRLEIKR
notes: human IgG1 / kappa constant regions; also called humanized antibody H5L14
With B6, the MFI with Human IL12 (His Tag) [2] turned out to be 66 MFI; in the assay with Human IL12 (His Tag) [4], 113 MFI; in assay [5], 218 MFI. Moreover, the results for the EC50 in the assay with Human IL12 (His Tag) [3] and in the assay with human p40-His [6] were 0.532 µg/mL and 0.107 nM, respectively.
